The target of the test is TGF-β receptors on MFB-F11 cells. The note with it: scale: fold less potent than HEK293T-expressed TGM1.

For the substance “algal-expressed TGM1 (Heligmosomoides polygyrus TGF-β mimic, mature 5-domain, FLAG-tagged) (ligand)”, the MFB-F11 Smad-responsive reporter cells, secreted alkaline phosphatase (405 nm), log dilutions starting at 100 ng/mL, 24 h; potency against HEK293T-expressed TGM1 turned out to be 10.

The record behind these values is PMC8516079.
